Data published in article PMC11548041.

Molecular target: T1, EpCAM (endogenous on HuCCT1 cells) (UniProt P16422)
T1 sequence: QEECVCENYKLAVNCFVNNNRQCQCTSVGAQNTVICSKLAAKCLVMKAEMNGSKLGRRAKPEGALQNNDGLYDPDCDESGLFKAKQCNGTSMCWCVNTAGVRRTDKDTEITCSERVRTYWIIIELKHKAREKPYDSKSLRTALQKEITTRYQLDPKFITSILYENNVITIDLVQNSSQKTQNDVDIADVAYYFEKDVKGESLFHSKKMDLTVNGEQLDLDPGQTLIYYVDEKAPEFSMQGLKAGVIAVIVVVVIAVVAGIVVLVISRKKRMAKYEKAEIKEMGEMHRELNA
Assay: flow cytometry on HuCCT1 cells
Conditions: Whole cells, 30 min on ice, HuCCT1 biotin block in PBS + 0.2% NaN3, 2.5 mM MgCl2, 0.1 mg/mL yeast total RNA (aptamer binding buffer not separately stated) …

Row | Sequence | Kd (phosphorothioate (marked * in Table 2): C*A*C*ACTTCTAAGAGGG*AACAGACGTCGATCTTTGCGGAACT*CCTG*C*G) | Kd (phosphorothioate (marked * in Table 2): G*A*C*CCACGGAGGTTG*CGTCCGTG*GGGG*A*C)
1 | CACACTTCTAAGAGGGAACAGACGTCGATCTTTGCGGAACTCCTGCG [PLD01 (B-aptamer)] | 177 nM | –
2 | GACCCACGGAGGTTGCGTCCGTGGGGGAC [PLD02 (B-aptamer)] | – | 236 nM
